Like-named read-outs stand apart in the source and are kept apart here.
Legend:
HIV HR1 polypeptide = target: T1, HIV HR1 polypeptide (Human immunodeficiency virus type 1 group M subtype B, UniProt P04578); assay: biochemical; assay type: binding; settings: for kon: read-out: ka
T1 construct: made in house; host or cells: chemical peptide synthesis (no expression host)
Experimental: All surface plasmon resonance measurements were performed on a BIAcore 3000 instrument (GE Healthcare Biosciences AB, Sweden) at 25° C. Chemically prepared HIV HR1 peptide (heptad repeat 1; Biotin-[…] Q-NH2 (SEQ ID NO: 87)) was immobilized on a CM5 biosensor chip according to the manufacturer instructions (GE Healthcare Biosciences AB, Sweden). The fusion polypeptide was diluted to a concentration of 25 nM and injected over 5 minutes at a flow rate of 50 μl/min. Thereafter the protein complex obtained from different combined fractions was diluted into the same buffer to concentrations of 250 nM and 80 nM and injected over 5 minutes at a flow rate of 50 μl/min. Afterwards the sensor chip was regenerated for 1 minute with PBS, pH 8.0, 0.005% (v/v) Tween 20. Data analysis was performed with the BIAevaluation software (BIAcore, Sweden) (see FIG. 4).

[1] = tested on: HIV cell-cell-membrane fusion; assay: cell-cell-fusion-assay (CCF-assay), antiviral activity; assay type: cell-based
Excerpt: The amino acid sequence of fusion polypeptide FP-1 is SEQ ID NO: 76, the amino acid sequence of fusion polypeptide FP-2 is SEQ ID NO: 77, and the amino acid sequence of fusion polypeptide FP-3 is SEQ ID NO: 78. In the fusion polypeptides FP-1 to FP-3 the same serpin-finger polypeptide is conjugated to different HIV fusion inhibitor polypeptides. The fusion polypeptide FP-3 is expressed better in E. coli than FP-2 and in turn FP-2 is expressed better than the fusion polypeptide FP-1. The same sequence of the fusion polypeptides is obtained for the binding to target HIV HR-1 polypeptide (FP-3>FP-2>FP-1) in a BIAcore assay. The same sequence has also been found for the anti-viral activity in a cell-cell-fusion-assay (CCF-assay).

[2] = BIAcore 3000, 25° C., HR1 peptide immobilized on CM5 chip

T1 sequence (P04578 540-590): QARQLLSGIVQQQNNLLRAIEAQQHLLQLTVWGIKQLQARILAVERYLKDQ

FP-2: SEQ ID NO: 77=GR+SEQ ID NO: 82+SEQ ID NO: 75+SEQ ID NO: 13; serpin-finger, linker, T-651 (GRGTEAAGAMFLEAIPMSTTWMEWDKEINNYTSLIHSLIEESQNQQEKNEQELL)
KA (HIV HR1 polypeptide): 1.08e+10 M⁻¹
Kd (HIV HR1 polypeptide): 0.0924 nM
ka (HIV HR1 polypeptide): 1.29e+06 M⁻¹ s⁻¹
kd (HIV HR1 polypeptide): 0.000119 s⁻¹
IC50 [1]: 330 nM

CC[C@H](C)[C@H](NC(=O)[C@H](CC(C)C)NC(=O)[C@H](CO)NC(=O)[C@H](Cc1c[nH]cn1)NC(=O)[C@@H](NC(=O)[C@H](CC(C)C)NC(=O)[C@H](CO)NC(=O)[C@@H](NC(=O)[C@H](Cc1ccc(O)cc1)NC(=O)[C@H](CC(N)=O)NC(=O)[C@H](CC(N)=O)NC(=O)[C@@H](NC(=O)[C@H](CCC(=O)O)NC(=O)[C@H](CCCNC(=N)N)NC(=O)[C@H](CC(=O)O)NC(=O)[C@H](Cc1c[nH]c2ccccc12)NC(=O)[C@H](CCC(=O)O)NC(=O)[C@H](CCSC)NC(=O)[C@H](Cc1c[nH]c2ccccc12)NC(=O)[C@@H](NC(=O)[C@@H](N)CCSC)[C@@H](C)O)[C@@H](C)CC)[C@@H](C)O)[C@@H](C)CC)C(=O)N[C@@H](CCC(=O)O)C(=O)N[C@@H](CCC(=O)O)C(=O)N[C@@H](CO)C(=O)N[C@@H](CCC(N)=O)C(=O)N[C@@H](CC(N)=O)C(=O)N[C@@H](CCC(N)=O)C(=O)N[C@@H](CCC(N)=O)C(=O)N[C@@H](CCC(=O)O)C(=O)N[C@@H](CCCCN)C(=O)N[C@@H](CC(N)=O)C(=O)N[C@@H](CCC(=O)O)C(=O)N[C@@H](CCC(N)=O)C(=O)N[C@@H](CCC(=O)O)C(=O)N[C@@H](CC(C)C)C(=O)N[C@@H](CC(C)C)C(=O)O [T-651, reference compound]
kon (HIV HR1 polypeptide; [2]): 1.65e+06 M⁻¹ s⁻¹

CC[C@H](C)[C@H](NC(=O)[C@H](C)NC(=O)[C@H](CCCNC(=N)N)NC(=O)[C@H](CC(=O)O)NC(=O)[C@H](Cc1c[nH]c2ccccc12)NC(=O)[C@H](C)NC(=O)[C@H](CCC(=O)O)NC(=O)[C@H](Cc1c[nH]c2ccccc12)NC(=O)[C@@H](NC(=O)[C@@H](N)[C@@H](C)O)[C@@H](C)O)C(=O)N[C@@H](C)C(=O)N[C@@H](CCC(=O)O)C(=O)N[C@@H](Cc1ccc(O)cc1)C(=O)N[C@@H](C)C(=O)N[C@@H](C)C(=O)N[C@@H](CCCNC(=N)N)C(=O)N[C@H](C(=O)N[C@@H](CCC(=O)O)C(=O)N[C@@H](C)C(=O)N[C@@H](CC(C)C)C(=O)N[C@H](C(=O)N[C@@H](CCCNC(=N)N)C(=O)N[C@@H](C)C(=O)N[C@@H](C)C(=O)N[C@@H](CCC(N)=O)C(=O)N[C@@H](CCC(=O)O)C(=O)N[C@@H](CCC(N)=O)C(=O)N[C@@H](CCC(N)=O)C(=O)N[C@@H](CCC(=O)O)C(=O)N[C@@H](CCCCN)C(=O)N[C@@H](CC(N)=O)C(=O)N[C@@H](CCC(=O)O)C(=O)N[C@@H](C)C(=O)N[C@@H](C)C(=O)N[C@@H](CC(C)C)C(=O)N[C@@H](CCCNC(=N)N)C(=O)N[C@@H](CCC(=O)O)C(=O)N[C@@H](CC(C)C)C(=O)O)[C@@H](C)CC)[C@@H](C)CC [T-2635, reference compound]
kon (HIV HR1 polypeptide): 1.11e+06 M⁻¹ s⁻¹

CC[C@H](C)[C@H](NC(=O)[C@H](CCC(N)=O)NC(=O)[C@H](C)NC(=O)[C@H](CCC(N)=O)NC(=O)[C@H](CCC(=O)O)NC(=O)[C@H](CC(C)C)NC(=O)[C@H](CC(C)C)NC(=O)[C@H](C)NC(=O)[C@@H](NC(=O)[C@@H](NC(=O)[C@H](CCCCN)NC(=O)[C@H](CCC(N)=O)NC(=O)[C@H](CCC(=O)O)NC(=O)[C@H](Cc1c[nH]c2ccccc12)NC(=O)[C@H](CCC(=O)O)NC(=O)[C@H](CCC(N)=O)NC(=O)[C@H](Cc1c[nH]c2ccccc12)NC(C)=O)[C@@H](C)CC)[C@@H](C)O)C(=O)N[C@@H](CCC(N)=O)C(=O)N[C@@H](CCC(N)=O)C(=O)N[C@@H](CCC(=O)O)C(=O)N[C@@H](CCCCN)C(=O)N[C@@H](CC(N)=O)C(=O)N[C@@H](CCC(=O)O)C(=O)N[C@@H](Cc1ccc(O)cc1)C(=O)N[C@@H](CCC(=O)O)C(=O)N[C@@H](CC(C)C)C(=O)N[C@@H](CCC(N)=O)C(=O)N[C@@H](CCCCN)C(=O)N[C@@H](CC(C)C)C(=O)N[C@@H](CC(=O)O)C(=O)N[C@@H](CCCCN)C(=O)N[C@@H](Cc1c[nH]c2ccccc12)C(=O)N[C@@H](C)C(=O)N[C@@H](CO)C(=O)N[C@@H](CC(C)C)C(=O)N[C@@H](Cc1c[nH]c2ccccc12)C(=O)N[C@@H](CCC(=O)O)C(=O)N[C@@H](Cc1c[nH]c2ccccc12)C(=O)N[C@@H](Cc1ccccc1)C(N)=O [T-1249, reference compound]
kd (HIV HR1 polypeptide; [2]): 0.00127 s⁻¹

B1: FP-1: SEQ ID NO: 76=GR+SEQ ID NO: 05+SEQ ID NO: 52+SEQ ID NO: 37; serpin-finger, linker, T-1249 (protein)
chain: GRTEAAGAMFLEAIPMSGGGGSGGGGSGGGGTWQEWEQKITALLEQAQIQQEKNEYELQKLDKWASLWEWF
KA (HIV HR1 polypeptide): 6.29e+08 M⁻¹
Kd (HIV HR1 polypeptide): 1.59 nM
ka (HIV HR1 polypeptide): 227000 M⁻¹ s⁻¹
kd (HIV HR1 polypeptide): 0.000361 s⁻¹
IC50 [1]: 700 nM

B2: FP-3: SEQ ID NO: 78=GR+SEQ ID NO: 83+SEQ ID NO: 50+SEQ ID NO: 40; serpin-finger, linker, T-2635 (protein)
chain: GKSGTEAAGAMFLEAIPMSGGGGSGGGGSGGGGTTWEAWDRAIAEYAARIEALIRAAQEQQERNEAALREL
KA (HIV HR1 polypeptide): 3.22e+10 M⁻¹
Kd (HIV HR1 polypeptide): 0.031 nM
ka (HIV HR1 polypeptide): 991000 M⁻¹ s⁻¹
kd (HIV HR1 polypeptide): 3.07e-05 s⁻¹
IC50 [1]: 200 nM
